The values below come from article PMC5295395, “Inhibition of PlexA1-mediated brain tumor growth and tumor-associated angiogenesis using a transmembrane domain targeting peptide” (Oncotarget, 2016).

The target in data set [1] is Plexin-A1 (human (endogenous in U373MG and U118MG)) (UniProt Q9UIW2). Briefly: proximity ligation; proximity ligation assay on tumor tissue sections of U118MG-Luc xenografts; mice treated with MTP-PlexA1 against control mice.
For data set [2] the target is unchanged. Briefly: proximity ligation; in situ proximity ligation assay (Duo-link) on U373MG cells; MTP-PlexA1 (10^-7 M) added, NRP1/PlexA1 complexes counted against vehicle.
For data set [3] the target is unchanged. Briefly: co-IP; immunoprecipitation of PlexA1 from U373MG cells stimulated with Sema3A (100 ng/ml) or VEGF (100 ng/ml) with MTP-PlexA1 (10^-7 M); amount of co-precipitated NRP1 and PlexA4 against no peptide.
The subject of a further data set is PlexA1. Kind of data set: morpholino-based PlexA1 knockdown in zebrafish, intersegmental vessels. The data set is classed as in vivo. Particulars: tg(kdrl:eGFP) zebrafish, 28 hours post fertilization, vs no injection or mismatch morpholino. An excerpt:
We observed PlexA1 positive blood vessels in the tissue array of GBM samples (Figure 5A). […] To address this possibility we first used a transgenic zebra-fish model tg(kdrl:eGFP) highlighting the endothelial cells. This allowed us to assess the angiogenic activities in vivo by analyzing formation of intersegmental vessels (ISVs) after morpholino-based knockdown of the target. […] (Scale bar: 40 μm). […] Representative images of control, Plexin-A1 mismatch and […]1 knockdown embryos (plxna1MO) are shown 28 hours post fertilization (28hpf). […] (E) Live-monitoring of VEGF-induced HUVEC cell migration assay using the […] system (transwell assay). (F) Microphotographs illustrating the expression of PlexA1 in blood vessels of the chick chorioallontoic membrane (upper left picture). Microphotographs (middle and lower left pictures) and camera lucida drawing (middle and lower right pictures) showing representative fields of observation after 24 h incubation with VEGF (100 ng/ml, +vehicle) or […]1 (10^-7 M). The number of VEGF-induced new blood vessels is shown in the graph. For knockdown of PlexA1 in the zebra fish we used morpholino oligonucleotides described by. MO ([NT]) was injected at the one-cell stage. Animals ([…] incubated at 28.5°C for 5 hours before treatment with 1-phenyl-2-thiourea (PTU) to prevent pigment formation. […]

In a further data set the test system is NRP1/PlexA1 complexes. Kind of data set: in situ proximity ligation assay (Duo-link), NRP1/PlexA1 complexes in U373MG cells. Particulars: specificity control, MTP-Neu at 10–6 M. Type of data set: cell-based, human. The protocol: “Zip sequence” is the positive control of dimerization and “Empty” is the negative control of this bacterial system. (C, D) SPR assay (Biacore) to quantify MTP-PlexA1 interactions with PLexA1, NRP1 and VEGFR2 TMDs. (E) Proximity ligation assay showing that MTP-PlexA1 (10^−7 M) decreases the number of PLexA1-NRP1 interactions (green dots) in U373MG cells (scale bar = 20 μm).
Additional specificity controls were performed using a mutated version of MTP-PlexA1 (in which 3 glycines of the GxxxGxxxG motif were replaced by 3 valines or MTP-Neu, an anti-breast cancer peptide known to not interact with PlexA1) as described in Supplementary Figure S2. […] Similar results were obtained when cells were exposed to VEGF (39.4% NRP1 and 35.4% PlexA4, Figure 4B).
Supplementary Figure S2: Specificity controls were performed using a mutated version of MTP-PlexA1 […]
LVIVAVLIAYKRK). Such mutations have been previously shown to be sufficient to lose activity of NRP1 antagonist membrane domain targeting peptide (Roth et al., 2008 Mol Biol Cell). We also used MTP-Neu, a transmembrane domain targeting peptide known to […]
M, a concentration previously shown to produce maximal antagonist activity of the peptide. Additionally, we also repeated the in vitro angiogenic assay on matrigel using HUVEC cells. […]
to MTP-PlexA1. These experiments confirmed the specificity of MTP-PlexA1.
(1 picture or pasted object on this page, not shown here)

For another data set, the system named is NRP1 or PlexA1. Particulars: ref Arpel et al., 2014, Cell Reports; cited from earlier work. The source says:
Such mutations have been previously shown to be sufficient to lose activity of NRP1 antagonist membrane domain targeting peptide (Roth et al., 2008 Mol Biol Cell).

Chain of UniProt Q9UIW2 (Q9UIW2 27-1896): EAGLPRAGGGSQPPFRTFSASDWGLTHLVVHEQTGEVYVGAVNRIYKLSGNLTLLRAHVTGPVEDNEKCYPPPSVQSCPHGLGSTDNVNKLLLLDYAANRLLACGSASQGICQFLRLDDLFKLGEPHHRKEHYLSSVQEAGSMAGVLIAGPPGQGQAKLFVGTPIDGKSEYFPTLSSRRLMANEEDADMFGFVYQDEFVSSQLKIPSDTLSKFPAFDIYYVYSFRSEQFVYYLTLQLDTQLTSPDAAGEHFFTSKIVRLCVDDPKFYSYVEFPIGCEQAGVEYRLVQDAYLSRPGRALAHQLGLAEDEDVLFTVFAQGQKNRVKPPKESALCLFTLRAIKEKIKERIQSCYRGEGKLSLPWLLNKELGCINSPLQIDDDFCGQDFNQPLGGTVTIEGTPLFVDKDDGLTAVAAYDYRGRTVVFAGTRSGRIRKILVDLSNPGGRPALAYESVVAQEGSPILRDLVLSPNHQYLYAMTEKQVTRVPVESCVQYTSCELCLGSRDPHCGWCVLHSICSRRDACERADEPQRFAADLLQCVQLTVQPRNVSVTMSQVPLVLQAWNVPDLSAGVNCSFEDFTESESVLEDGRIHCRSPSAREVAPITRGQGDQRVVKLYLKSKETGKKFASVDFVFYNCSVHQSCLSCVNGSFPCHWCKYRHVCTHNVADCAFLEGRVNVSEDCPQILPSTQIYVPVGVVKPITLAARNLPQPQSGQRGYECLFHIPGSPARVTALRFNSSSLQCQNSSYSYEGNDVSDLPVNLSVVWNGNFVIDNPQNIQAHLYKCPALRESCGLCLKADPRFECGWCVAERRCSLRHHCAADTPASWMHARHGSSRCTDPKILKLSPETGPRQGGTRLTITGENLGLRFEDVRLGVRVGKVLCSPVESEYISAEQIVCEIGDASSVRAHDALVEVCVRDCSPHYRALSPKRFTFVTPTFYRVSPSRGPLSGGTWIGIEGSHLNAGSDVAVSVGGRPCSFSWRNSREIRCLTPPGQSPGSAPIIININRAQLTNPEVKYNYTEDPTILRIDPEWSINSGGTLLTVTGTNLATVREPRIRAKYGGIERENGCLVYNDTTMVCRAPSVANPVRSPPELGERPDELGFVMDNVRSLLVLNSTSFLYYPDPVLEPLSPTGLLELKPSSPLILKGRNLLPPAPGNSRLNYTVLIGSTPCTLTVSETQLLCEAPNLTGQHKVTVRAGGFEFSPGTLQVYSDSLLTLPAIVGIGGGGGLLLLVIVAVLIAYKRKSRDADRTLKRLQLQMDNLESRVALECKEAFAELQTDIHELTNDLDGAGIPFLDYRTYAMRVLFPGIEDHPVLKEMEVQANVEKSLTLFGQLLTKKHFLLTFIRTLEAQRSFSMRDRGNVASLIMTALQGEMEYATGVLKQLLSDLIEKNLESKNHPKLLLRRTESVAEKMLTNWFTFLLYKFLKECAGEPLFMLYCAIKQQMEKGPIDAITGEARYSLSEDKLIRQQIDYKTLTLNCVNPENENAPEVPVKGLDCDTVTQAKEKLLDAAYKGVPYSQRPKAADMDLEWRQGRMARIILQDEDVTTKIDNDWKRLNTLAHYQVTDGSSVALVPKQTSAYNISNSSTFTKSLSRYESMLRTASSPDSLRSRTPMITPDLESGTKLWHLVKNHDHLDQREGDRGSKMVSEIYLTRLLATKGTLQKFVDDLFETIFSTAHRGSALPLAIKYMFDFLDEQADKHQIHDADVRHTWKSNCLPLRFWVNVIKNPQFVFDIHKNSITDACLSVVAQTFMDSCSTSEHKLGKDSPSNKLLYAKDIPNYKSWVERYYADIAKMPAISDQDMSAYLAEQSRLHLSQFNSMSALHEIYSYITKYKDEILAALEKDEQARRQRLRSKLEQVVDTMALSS

As to “MTP-PlexA1, synthetic transmembrane peptide mimicking the TMD of PlexA1”, in data set [1], the percent change of PlexA1-NRP1 interactions (proximity ligation, tumor sections) is -48.5%. The percent reduction of NRP1/PlexA1 complexes (proximity ligation, U373MG) in data set [2] came to 29.4%. Besides, in data set [3], the percent reduction of NRP1 co-immunoprecipitated with PlexA1 (VEGF) stood at 39.4% and the percent reduction of PlexA4 co-immunoprecipitated with PlexA1 (VEGF) was determined as 35.4%.

Turning to “5′-GCCACATATCTGCACTGGTCCTTGA-3′ (all phosphorodiamidate morpholino (PMO)) [morpholino sequence against PlexA1, morpholino oligonucleotide for knockdown of PlexA1 in the zebra fish]”, the “abnormal angiogenic sprouts in intersegmental vessels” value in the data set with PlexA1 is on record as “significant number of abnormal angiogenic sprouts”.

For “TFIIATVEGVLLFLILVVVVGILIKRR [MTP-Neu, reference compound]”, the “disruption of NRP1/PlexA1 dimers” value in the data set with NRP1/PlexA1 complexes is “unrelated MTP-Neu peptide”. Moreover, the “interaction with NRP1 or PlexA1” value with NRP1 or PlexA1 is given as “not interact with NRP1 or PlexA1”.
